Several values for one entry are separate records, joined by “and”; a condition that tells them apart may be missing. Equal entries are not always repeated. Blank lines part the entries; values can stand above or below the molecule they belong to.
B1: NPM1_(120), the N-terminal pentamerization domain (NTD) of NPM1 (domain or fragment, human, UniProt P06748 1-120, looked up)
chain: MEDSMDMDMSPLRPQNYLFGCELKADKDYHFKVDNDENEHQLSLRTVSLGAGAKDELHIVEAEAMNYEGSPIKVTLATLKMSVQPTVSLGGFEITPPVVLRLKCGSGPVHISGQHLVAVE
notes: Nucleophosmin 1, human, NTD with the A1 tract, residues 1 to 120; exact construct and tags are in the supplementary methods; also called NPM120; isolated NTD; source: produced by the authors
B2: rpL5_(21-37), residues 21 to 37 of ribosomal protein L5 (peptide, UniProt P46777 21-37, looked up)
peptide: RRRREGKTDYYARKRLV
notes: ribosomal protein L5 (rpL5), residues 21 to 37, with two basic motifs; printed mass 2.2 kDa; also called rpL5 peptide; rpL5_(12-37)
B3: NPM1_(188), the NTD and the acidic regions of the IDR of NPM1 (domain or fragment, human, UniProt P06748 1-188, looked up)
chain: MEDSMDMDMSPLRPQNYLFGCELKADKDYHFKVDNDENEHQLSLRTVSLGAGAKDELHIVEAEAMNYEGSPIKVTLATLKMSVQPTVSLGGFEITPPVVLRLKCGSGPVHISGQHLVAVEEDAESEDEEEEDVKLLSISGKRSAPGGGSKVPQKKVKLAADEDDDDDDEEDDDEDDDDDDFDDEEAEE
notes: Nucleophosmin 1, human, NTD and acidic tracts A1-3, C-terminally truncated at residue 188; exact construct and tags are in the supplementary methods; Mostly pentameric; also called NPM188; source: produced by the authors
B4: NPM1AML, NPM1 variant with an AML mutation at the C-terminus (natural protein, human, UniProt P06748 1-294, looked up)
chain: MEDSMDMDMSPLRPQNYLFGCELKADKDYHFKVDNDENEHQLSLRTVSLGAGAKDELHIVEAEAMNYEGSPIKVTLATLKMSVQPTVSLGGFEITPPVVLRLKCGSGPVHISGQHLVAVEEDAESEDEEEEDVKLLSISGKRSAPGGGSKVPQKKVKLAADEDDDDDDEEDDDEDDDDDDFDDEEAEEKAPVKKSIRDTPAKNAQKSNQNGKDSKPSSTPRSKGQESFKKQEKTPKTPKGPSSVEDIKAKMQASIEKGGSLPKVEAKFINYVKNCFRMTDQEAIQDLCLAVEEVSLRK
notes: Compared directly with FL NPM1, so most likely the whole protein with the changed C-terminus; also called AML variant; source: purified by the authors

Legend:
[1] = target: NPM1_(ΔIDR), NPM1 variant in which NTD and CTD are linked without the IDR (human) (UniProt P06748); test: native MS; each NPM1 variant alone; nESI with collision-induced dissociation, collision voltages 25 to 75 V
[2] = target: the molecule itself; test: native MS; NPM1_120 or FL NPM1 in the presence of the rpL5_21-37 peptide; collisional activation
[3] = target: the molecule itself; test: native MS; each NPM1 variant alone; nESI with collision-induced dissociation, collision voltages 25 to 75 V
[4] = target: T1, Full-length (FL) Nucleophosmin 1 (human, UniProt P06748 1-294); test: native MS; NPM1_120 or FL NPM1 in the presence of the rpL5_21-37 peptide; collisional activation; conditions: both partners purified
T1 construct: Forms pentamers that assemble into large oligomers without defined stoichiometry; PDB 8AS5 models only the N-terminal core; also called NPM1; FL NPM1; source: produced by the authors

[5] = target: B1; test: as above; conditions: both partners purified

stoichiometry N [1]: 5 and 10
Molecule: NPM1_(ΔIDR), NPM1 variant in which NTD and CTD are linked without the IDR (from UniProt P06748 1-120; P06748 240-294)

Molecule: B1
stoichiometry N [2]: ≥ 25 subunits
stoichiometry N [3]: 10

Molecule: B2
binding result [4]: binds
binding result [5]: binds

Molecule: B3
stoichiometry N [3]: 5 and 10

Molecule: B4
binding result [3]: binds
